The numbers were not newly measured in PMC4449288, which cites them from elsewhere.

For the data set, the target named is mAKAPβ (Homo sapiens) (UniProt Q13023). The experiment in a line: SPR. A general note: Surface plasmon resonance follows binding to a sensor surface in real time, without labels.
Sequence of UniProt Q13023 (Q13023 whole entry): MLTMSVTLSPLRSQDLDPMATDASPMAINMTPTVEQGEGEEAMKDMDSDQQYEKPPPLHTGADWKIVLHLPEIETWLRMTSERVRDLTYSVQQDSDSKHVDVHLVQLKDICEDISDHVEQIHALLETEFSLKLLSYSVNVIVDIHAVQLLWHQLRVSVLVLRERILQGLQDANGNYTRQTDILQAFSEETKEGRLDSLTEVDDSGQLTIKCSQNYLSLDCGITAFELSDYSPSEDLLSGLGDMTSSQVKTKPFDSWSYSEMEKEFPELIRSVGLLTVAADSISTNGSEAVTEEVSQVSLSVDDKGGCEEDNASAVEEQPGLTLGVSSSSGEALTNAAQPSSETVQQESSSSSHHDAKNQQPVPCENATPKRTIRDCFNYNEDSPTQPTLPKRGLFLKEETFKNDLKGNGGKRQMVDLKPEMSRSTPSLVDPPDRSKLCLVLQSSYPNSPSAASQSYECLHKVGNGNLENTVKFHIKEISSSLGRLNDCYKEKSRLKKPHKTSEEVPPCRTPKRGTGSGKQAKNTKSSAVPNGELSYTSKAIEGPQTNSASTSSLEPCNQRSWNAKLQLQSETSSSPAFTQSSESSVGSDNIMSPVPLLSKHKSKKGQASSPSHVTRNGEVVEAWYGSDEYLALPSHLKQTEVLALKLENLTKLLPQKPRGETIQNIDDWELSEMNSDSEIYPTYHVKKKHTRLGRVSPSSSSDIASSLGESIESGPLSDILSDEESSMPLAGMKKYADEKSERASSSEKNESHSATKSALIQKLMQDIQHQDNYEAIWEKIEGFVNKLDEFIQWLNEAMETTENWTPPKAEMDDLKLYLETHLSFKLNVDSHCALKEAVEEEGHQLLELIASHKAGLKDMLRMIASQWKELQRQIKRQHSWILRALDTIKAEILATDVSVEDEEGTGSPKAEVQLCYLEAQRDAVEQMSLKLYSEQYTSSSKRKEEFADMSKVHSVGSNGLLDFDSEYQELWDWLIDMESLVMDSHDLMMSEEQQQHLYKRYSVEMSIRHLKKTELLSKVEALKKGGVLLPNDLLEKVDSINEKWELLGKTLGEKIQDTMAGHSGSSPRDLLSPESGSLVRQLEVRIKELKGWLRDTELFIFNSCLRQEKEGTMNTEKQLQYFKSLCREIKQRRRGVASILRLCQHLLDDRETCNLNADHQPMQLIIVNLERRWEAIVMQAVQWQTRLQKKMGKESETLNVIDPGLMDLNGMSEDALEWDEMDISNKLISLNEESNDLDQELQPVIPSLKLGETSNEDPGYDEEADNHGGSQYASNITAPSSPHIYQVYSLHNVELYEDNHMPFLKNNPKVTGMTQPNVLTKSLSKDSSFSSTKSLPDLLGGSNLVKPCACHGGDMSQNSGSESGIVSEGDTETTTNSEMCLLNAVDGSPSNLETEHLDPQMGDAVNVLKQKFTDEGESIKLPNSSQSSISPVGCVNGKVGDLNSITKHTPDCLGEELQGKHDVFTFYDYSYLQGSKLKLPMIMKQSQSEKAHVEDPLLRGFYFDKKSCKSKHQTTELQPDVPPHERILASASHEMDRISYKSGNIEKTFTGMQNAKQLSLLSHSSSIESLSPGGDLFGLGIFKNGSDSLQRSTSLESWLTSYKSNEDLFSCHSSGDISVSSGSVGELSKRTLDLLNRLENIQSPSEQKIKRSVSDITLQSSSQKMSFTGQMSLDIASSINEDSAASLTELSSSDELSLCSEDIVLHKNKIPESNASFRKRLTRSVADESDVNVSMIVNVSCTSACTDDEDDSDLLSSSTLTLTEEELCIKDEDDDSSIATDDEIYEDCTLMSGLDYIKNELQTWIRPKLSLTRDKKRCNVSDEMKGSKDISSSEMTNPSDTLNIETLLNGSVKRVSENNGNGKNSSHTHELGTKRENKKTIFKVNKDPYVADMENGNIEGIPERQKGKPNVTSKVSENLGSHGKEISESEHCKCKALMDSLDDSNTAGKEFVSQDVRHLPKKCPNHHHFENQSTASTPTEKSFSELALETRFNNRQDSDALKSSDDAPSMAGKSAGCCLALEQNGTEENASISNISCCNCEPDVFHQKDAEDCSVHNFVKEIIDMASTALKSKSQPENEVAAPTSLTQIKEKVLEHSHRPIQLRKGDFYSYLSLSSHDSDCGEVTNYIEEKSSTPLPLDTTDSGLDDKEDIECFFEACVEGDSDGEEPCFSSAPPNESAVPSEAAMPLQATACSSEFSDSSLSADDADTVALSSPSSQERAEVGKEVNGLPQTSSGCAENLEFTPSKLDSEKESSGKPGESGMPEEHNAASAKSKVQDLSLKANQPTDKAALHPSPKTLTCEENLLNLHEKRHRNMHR

Usually Kd stands for the free concentration of one partner at which half of the binding sites on the other are occupied at equilibrium, for simple one-to-one binding. As for RSK3 (from UniProt Q15349), the equilibrium dissociation constant (Kd) is 1.6 nM.
